Assay results as given in article PMC3232246.

Target: EGFP-tagged Rac1-Y64F (human), P63000
Assay: co-IP; MEF co-transfected with an EGFP-Rac1 construct and Flag-βPIX, Myc-Tiam1 or Myc-RhoGDI; modified RIPA buffer; 800 µg lysate, anti-GFP antibody and protein A sepharose, 4 °C; blots with anti-Flag or anti-Myc, normalised to the precipitated EGFP-Rac1
Conditions: remark: other sources report otherwise

B1: Myc-tagged RhoGDI, P52565 1-204 (natural protein)
chain: MAEQEPTAEQLAQIAAENEEDEHSVNYKPPAQKSIQEIQELDKDDESLRKYKEALLGRVAVSADPNVPNVVVTGLTLVCSSAPGPLELDLTGDLESFKKQSFVLKEGVEYRIKISFRVNREIVSGMKYIQHTYRKGVKIDKTDYMVGSYGPRAEEYEFLTPVEEAPKGMLARGSYSIKSRFTDDDKTDHLSWEWNLTIKKDWKD
percent drop in binding against wild type: > 50%
